According to US20150274831A1:

Tests used:
Assay in all cases: cell-based or functional assay
[1] = biological target: CSF-1R on cynomolgous monocytes (native receptor of CD14-enriched peripheral blood monocytes) (cynomolgous)
[2] = biological target: human mutant CSF-1R L301S Y969F, full-length, on cells (human) (UniProt P07333)
[3] = biological target: human wildtype CSF-1R (wt CSF-1R), full-length, on cells (human) (UniProt P07333)

Substance | % inhibition (of survival) = (100% - % survival) (CellTiterGlo; cynomolgous monocytes with 150 ng/ml huCSF-1; 5 µg/ml antibody) [1] | % survival (CellTiterGlo; cynomolgous monocytes with 150 ng/ml huCSF-1; 5 µg/ml antibody) [1] | Mutant CSF-1R IC30 [µg/ml] (cell viability, 3D culture, CellTiterGlo) [2] | Mutant CSF-1R IC50 [µg/ml] (cell viability, 3D culture, CellTiterGlo) [2] | IC50 CSF-1R Phosphorylation [3] | wtCSF-1R IC30 [µg/ml] (cell viability, 3D culture, CellTiterGlo) [3] | wtCSF-1R IC50 [µg/ml] (cell viability, 3D culture, CellTiterGlo) [3] | % inhibition at 20 µg/ml (mutant CSF-1R cells) [2]
Anti CSF-1R SC 2-4A5 (Santa Cruz Biotechnology, US) (antibody) | 69% | 31% | 2.56 µg/mL | 10 µg/mL | 1010 ng/mL | 16.6 µg/mL | 10 µg/mL | 
goat polyclonal anti-CSF-1R antibody ab10676 (abcam) |  |  | > 20 µg/mL |  |  | 14.2 µg/mL |  | 0%
